Here are results for three molecules from patent publication US12653863B2, “FGF21 compositions for treatment or prevention of neovascularization of the eye and methods therefor” (Children's Medical Center Corporation, priority 2017, dated 2026).

One data set has as its system HRMEC. The experiment in a line: HRMEC wound healing and cell viability assays. Format: cell-based. Conditions: in vitro, FIG. 7C-7D.
The next data set has as its system 661W cells. Put plainly: 661W photoreceptor cells with paraquat-induced oxidative stress. Format: cell-based. As to conditions: PQ-treated 661W, co-treatment with 500 ng/ml PF-05231023, perifosine 5 or 10 μM. The method, then:
Photoreceptors (661W) cell culture: Photoreceptor 661W cells were cultured at 37° Celsius, 5% CO2 in a humidified atmosphere in Dulbecco's modified Eagle's medium (DMEM, #1196502, Gibco) supplemented with 10% fetal bovine serum (#S12450, Atlanta Biologicals) and 1% antibiotic/antimycotic solution. An equal number of cells per well was plated on a 6-well dish. Oxidative stress was induced with 0.5 mM paraquat (PQ, Sigma, #856177) for 1 hour at 37° Celsius. The culture media were changed and the cells were treated with vehicle (PBS) or 500 ng/ml PF-05231023 for 24 hours. Cells were collected for protein and RNA.
Real-time PCR: Retinas or 661W cells were lysed with QIAzol lysis reagent and incubated on ice for 15 minutes. 20% chloroform was added and incubated for 5 minutes at room temperature. […] Quantitative analysis of gene expression was generated using an Applied Biosystems 7300 Sequence Detection System with the SYBR Green Master mix kit and gene expression was calculated relative to Cyclophilin A ((5′-CAG ACG CCA CTG TCG CTT T-3′ (SEQ ID NO: 30); 5′-TGTCTTTGGAACTTTGTCTGCAA-3′(SEQ ID NO: 31)) (retinas) or β-actin ((5′-CGGTTCCGATGCCCTGAGGCTCTT-3′ (SEQ ID NO: 48), 5′-CGTCACACTTCATGATGGAATTGA-3′ (SEQ ID NO: 49)) (photoreceptor 661W cells) using the ΔΔCt method. Each sample was repeated in triplicate. […]

Data set [1] concerns mice having oxygen-induced retinopathy. Put plainly: mouse oxygen-induced retinopathy (OIR), retinal whole mounts and retinal qPCR at P17. As to conditions: WT OIR mice, i.p. daily P12-P16, P17 retinal whole mounts, vs vehicle. Format: in vivo. The protocol:
Oxygen-induced retinopathy: mice were exposed to 75% oxygen from P7 to P12. The mice were then returned to room air until P17 (Connor et al., 2009; Smith et al., 1994). High oxygen led to vessel loss and the relative hypoxia induced neovascularization which reached to maximum at P17 (Smith et al., 1994). Both genders of mouse pups were used with body weight ranging from 5.5 to 7 grams (Connor et al., 2009). The mice were randomly assigned to either native FGF21 (5 mg/kg, twice per day) or long-acting FGF21 (1 mg/kg PF-05231023) or phosphate buffered saline (PBS). The mice were intraperitoneally injected daily from P12 to P16. For the intra-vitreal injection of PF-05231023 (0.5 μl 10 μg/μl stock per eye) was delivered using 10 μl syringe with 35G needle (World Precision Instruments, Inc.) at P12. The contralateral eye was injected with vehicle control. At P17, retinal neovascularization was quantified (Connor et al., 2009; Smith et al., 1994). […] Retinal neovascularization was quantified as previously reported (Connor et al., 2009). Percentages of neovascularization were calculated by comparing the number of pixels in the neovascular areas with the total number of pixels in the retina. n is the number of eyes quantified. […]

For data set [2], the system named is hyperglycemic mouse neonates. The experiment in a line: streptozotocin (STZ)-induced hyperglycemic ROP mouse model. Format: in vivo. The text has this: Hyperglycemia is a recently described risk factor for retinopathy of prematurity (ROP) in premature infants. In streptozotocin (STZ)-induced hyperglycemic ROP mouse model, retinal vascular development was confirmed as delayed. Specifically, FGF21 deficiency delayed normal retinal vascular network formation and worsened hyperglycemic ROP in such mice. Native (nFGF21) and long-acting FGF21 (PF-05231023) treatment were both observed to have promoted retinal vessel growth in hyperglycemic ROP. The protection of FGF21 observed was also confirmed as dependent upon adiponectin (APN).

The conditions of data set [3]: Huang et al., 2013; cited from earlier work.

For `O=C(COc1ccc(C(=O)c2ccccc2)cc1)NC1CCN(Cc2ccccc2)CC1` [AdipoRon], the “endothelial cell function (wound healing, viability)” value with HRMEC is “inhibited endothelial cell function in vitro”.

For the molecule `CCCCCCCCCCCCCCCCCCOP(=O)([O-])OC1CC[N+](C)(C)CC1` [perifosine], in the data set with 661W cells, the “induction of NRF2 expression by PF-05231023” value was “dose-dependently inhibited”.

B1: Native FGF21: native FGF21 (nFGF21), unmodified FGF21 with short half-life (protein, UniProt Q9NSA1 29-209, looked up)
Fibroblast growth factor 21: HPIPDSSPLLQFGGQVRQRYLYTDDAQQTEAHLEIREDGTVGGAADQSPESLLQLKALKPGVIQILGVKTSRFLCQRPDGALYGSLHFDPEACSFRELLLEDGYNVYQSEAHGLPLHLPGNKSPHRDPAPRGPARFLPLPGLPPALPEPPGILAPQPPDVGSSDPLSMVGPSQGRSPSYAS
As for B1, the retinal neovascularization result in data set [1] is given as “did not affect neovascularization”. Also, in data set [2], the retinal vascular growth entry is “improved retinal vascular growth”. For the same molecule, in data set [3], the half-life – broadly, the time needed for the level to fall by half in the phase considered – is 24 min.
